Values quoted from earlier work, collected in US20200069786A1, “COMPOSITION AND PROCESS FOR PREPARING VACCINE” (TREOS BIO ZRT., priority 2018, published 2020).
Substitutions are numbered along the chain they refer to. Read-outs that look alike come from different tables or passages of the source.

B1: ODF3 (protein, UniProt Q96PU9 1-254, looked up)
Ciliary microtubule …: MTEEVWMGTWRPHRPRGPIMALYSSPGPKYLIPPTTGFMKHTPTKLRAPAYSFRGAPMLLAENCSPGPRYNVNPKILRTGKDLGPAYSILGRYQTKTMLTPGPGDYFPEKSTKYVFDSAPSHSISARTKAFRVDSTPGPAAYMLPMVMGPNTVGKASQPSFSIKGRSKLGGFSDDLHKTPGPAAYRQTDVRVTKFKAPQYTMAARVEPPGDKTLKPGPGAHSPEKVTLTKPCAPVVTFGIKHSDYMTPLLVDVE
B2: PAGE2 (protein, UniProt Q7Z2X7 1-111, looked up)
P antigen family member 2: MSELLRARSQSSERGNDQESSQPVGSVIVQEPTEEKRQEEEPPTDNQGIAPSGEIENQAVPAFQGPDMEAFQQELALLKIEDEPGDGPDVREGIMPTFDLTKVLEAGDAQP
B3: MAGE-A5 (protein, UniProt P43359 1-124, looked up)
Putative melanoma-associated …: MSLEQKSQHCKPEEGLDTQEEALGLVGVQAATTEEQEAVSSSSPLVPGTLGEVPAAGSPGPLKSPQGASAIPTAIDFTLWRQSIKGSSNQEEEGPSTSPDPESVFRAALSKKVADLIHFLLLKY
B4: PAGE4 (protein, UniProt O60829 1-102, looked up)
P antigen family member 4: MSARVRSRSRGRGDGQEAPDVVAFVAPGESQQEEPPTDNQDIEPGQEREGTPPIEERKVEGDCQEMDLEKTRSERGDGSDVKEKTPPNPKHAKTKEAGDGQP
B5: PRSS55 (protein, UniProt Q6UWB4 19-352, looked up)
Serine protease 55: GPRTPLPEAGVAILGRARGAHRPQPPHPPSPVSECGDRSIFEGRTRYSRITGGMEAEVGEFPWQVSIQARSEPFCGGSILNKWWILTAAHCLYSEELFPEELSVVLGTNDLTSPSMEIKEVASIILHKDFKRANMDNDIALLLLASPIKLDDLKVPICLPTQPGPATWRECWVAGWGQTNAADKNSVKTDLMKAPMVIMDWEECSKMFPKLTKNMLCAGYKNESYDACKGDSGGPLVCTPEPGEKWYQVGIISWGKSCGEKNTPGIYTSLVNYNLWIEKVTQLEGRPFNAEKRRTSVKQKPMGSPVSGVPEPGSPRSWLLLCPLSHVLFRAILY
B6: TMEM31 (protein, UniProt Q5JXX7 1-168, looked up)
Transmembrane protein 31: MRLTEKSEGEQQLKPNNSNAPNEDQEEEIQQSEQHTPARQRTQRADTQPSRCRLPSRRTPTTSSDRTINLLEVLPWPTEWIFNPYRLPALFELYPEFLLVFKEAFHDISHCLKAQMEKIGLPIILHLFALSTLYFYKFFLPTILSLSFFILLVLLLLLFIIVFILIFF
B7: TEX14 (protein, UniProt Q8IWB6 1-1497, looked up)
Inactive …: MSRAVRLPVPCPVQLGTLRNDSLEAQLHEYVKQGNYVKVKKILKKGIYVDAVNSLGQTALFVAALLGLRKFVDVLVDYGSDPNHRCFDGSTPVHAAAFSGNQWILSKLLDAGGDLRLHDERGQNPKTWALTAGKERSTQIVEFMQRCASHMQAIIQGFSYDLLKKIDSPQRLVYSPSWCGGLVQGNPNGSPNRLLKAGVISAQNIYSFGFGKAMPWFQFYLTGATQMAYLGSLPVIGEKEVIQADDEPTFSFFSGPYMVMTNLVWNGSRVTVKELNLPTHPHCSRLRLADLLIAEQEHSSKLRHPYLLQLMAVCLSQDLEKTRLVYERITIGTLFSVLHERRSQFPVLHMEVIVHLLLQISDALRYLHFQGFIHRSLSSYAVHIISPGEARLTNLEYMLESEDRGVQRDLTRVPLPTQLYNWAAPEVILQKAATVKSDIYSFSMIMQEILTDDIPWKGLDGSVVKKAVVSGNYLEADVRLPKPYYDIVKSGIHVKQKDRTMNLQDIRYILKNDLKDFTGAQRTQPTESPRVQRYGLHPDVNVYLGLTSEHPRETPDMEIIELKEMGSQPHSPRVHSLFTEGTLDPQAPDPCLMARETQNQDAPCPAPFMAEEASSPSTGQPSLCSFEINEIYSGCLILEDDIEEPPGAASSLEADGPNQVDELKSMEEELDKMEREACCFGSEDESSSKAETEYSFDDWDWQNGSLSSLSLPESTREAKSNLNNMSTTEEYLISKCVLDLKIMQTIMHENDDRLRNIEQILDEVEMKQKEQEERMSLWATSREFTNAYKLPLAVGPPSLNYIPPVLQLSGGQKPDTSGNYPTLPRFPRMLPTLCDPGKQNTDEQFQCTQGAKDSLETSRIQNTSSQGRPRESTAQAKATQFNSALFTLSSHRQGPSASPSCHWDSTRMSVEPVSSEIYNAESRNKDDGKVHLKWKMEVKEMAKKAATGQLTVPPWHPQSSLTLESEAENEPDALLQPPIRSPENTDWQRVIEYHRENDEPRGNGKFDKTGNNDCDSDQHGRQPRLGSFTSIRHPSPRQKEQPEHSEAFQASSDTLVAVEKSYSHQSMQSTCSPESSEDITDEFLTPDGEYFYSSTAQENLALETSSPIEEDFEGIQGAFAQPQVSGEEKFQMRKILGKNAEILPRSQFQPVRSTEDEQEETSKESPKELKEKDISLTDIQDLSSISYEPDSSFKEASCKTPKINHAPTSVSTPLSPGSVSSAASQYKDCLESITFQVKTEFASCWNSQEFIQTLSDDFISVRERAKKLDSLLTSSETPPSRLTGLKRLSSFIGAGSPSLVKACDSSPPHATQRRSLPKVEAFSQHHIDELPPPSQELLDDIELLKQQQGSSTVLHENTASDGGGTANDQRHLEEQETDSKKEDSSMLLSKETEDLGEDTERAHSTLDEDLERWLQPPEESVELQDLPKGSERETNIKDQKVGEEKRKREDSITPERRKSEGVLGTSEEDELKSCFWKRLGWSESSRIIVLDQSDLSD
B8: XAGE-2 (protein, UniProt Q96GT9 1-111, looked up)
X antigen family member 2: MSWRGRSTYRPRPRRSLQPPELIGAMLEPTDEEPKEEKPPTKSRNPTPDQKREDDQGAAEIQVPDLEADLQELCQTKTGDGCEGGTDVKGKILPKAEHFKMPEAGEGKSQV
B9: SPATA19 (protein, UniProt Q7Z5L4 25-167, looked up)
Spermatogenesis-associated …: SSDIDVVESEAVSVLHHWLKKTEEEASRGIKEKLSINHPSQGVREKMSTDSPPTHGQDIHVTRDVVKHHLSKSDLLANQSQEVLEERTRIQFIRWSHTRIFQVPSEMTEDIMRDRIEQVRRSISRLTDVSAQDFSMRPSSSDC
B10: PAGE5 (protein, UniProt Q96GU1 1-130, looked up)
P antigen family member 5: MQAPWAGNRGWAGTREEVRDMSEHVTRSQSSERGNDQESSQPVGPVIVQQPTEEKRQEEEPPTDNQGIAPSGEIKNEGAPAVQGTDVEAFQQELALLKIEDAPGDGPDVREGTLPTFDPTKVLEAGEGQL
B11: TSP50 (protein, UniProt Q9UI38 40-385, looked up)
Probable threonine protease …: AGEAPGALSTADPADQSVQCVPKATCPSSRPRLLWQTPTTQTLPSTTMETQFPVSEGKVDPYRSCGFSYEQDPTLRDPEAVARRWPWMVSVRANGTHICAGTIIASQWVLTVAHCLIWRDVIYSVRVGSPWIDQMTQTASDVPVLQVIMHSRYRAQRFWSWVGQANDIGLLKLKQELKYSNYVRPICLPGTDYVLKDHSRCTVTGWGLSKADGMWPQFRTIQEKEVIILNNKECDNFYHNFTKIPTLVQIIKSQMMCAEDTHREKFCYELTGEPLVCSMEGTWYLVGLVSWGAGCQKSEAPPIYLQVSSYQHWIWDCLNGQALALPAPSRTLLLALPLPLSLLAAL
B12: ODF2 (protein, UniProt Q5BJF6 1-829, looked up)
Outer dense fiber protein 2: MSASSSGGSPRFPSCGKNGVTSLTQKKVLRAPCGAPSVTVTKSHKRGMKGDTVNVRRSVRVKTKVPWMPPGKSSARPVGCKWENPPHCLEITPPSSEKLVSVMRLSDLSTEDDDSGHCKMNRYDKKIDSLMNAVGCLKSEVKMQKGERQMAKRFLEERKEELEEVAHELAETEHENTVLRHNIERMKEEKDFTILQKKHLQQEKECLMSKLVEAEMDGAAAAKQVMALKDTIGKLKTEKQMTCTDINTLTRQKELLLQKLSTFEETNRTLRDLLREQHCKEDSERLMEQQGALLKRLAEADSEKARLLLLLQDKDKEVEELLQEIQCEKAQAKTASELSKSMESMRGHLQAQLRSKEAENSRLCMQIKNLERSGNQHKAEVEAIMEQLKELKQKGDRDKESLKKAIRAQKERAEKSEEYAEQLHVQLADKDLYVAEALSTLESWRSRYNQVVKEKGDLELEIIVLNDRVTDLVNQQQTLEEKMREDRDSLVERLHRQTAEYSAFKLENERLKASFAPMEDKLNQAHLEVQQLKASVKNYEGMIDNYKSQVMKTRLEADEVAAQLERCDKENKILKDEMNKEIEAARRQFQSQLADLQQLPDILKITEAKLAECQDQLQGYERKNIDLTAIISDLRSRIEHQGDKLEMAREKHQASQKENKQLSLKVDELERKLEATSAQNIEFLQVIAKREEAIHQSQLRLEEKTRECGTLARQLESAIEDARRQVEQTKEHALSKERAAQNKILDLETQLSRTKTELSQLRRSRDDADRRYQSRLQDLKDRLEQSESTNRSMQNYVQFLKSSYANVFGDGPYSTFLTSSPIRSRSPPA
B13: NR6A1 (protein, UniProt Q15406 1-480, looked up)
Nuclear receptor subfamily 6 …: MERDEPPPSGGGGGGGSAGFLEPPAALPPPPRNGFCQDELAELDPGTISVSDDRAEQRTCLICGDRATGLHYGIISCEGCKGFFKRSICNKRVYRCSRDKNCVMSRKQRNRCQYCRLLKCLQMGMNRKAIREDGMPGGRNKSIGPVQISEEEIERIMSGQEFEEEANHWSNHGDSDHSSPGNRASESNQPSPGSTLSSSRSVELNGFMAFREQYMGMSVPPHYQYIPHLFSYSGHSPLLPQQARSLDPQSYSLIHQLLSAEDLEPLGTPMLIEDGYAVTQAELFALLCRLADELLFRQIAWIKKLPFFCELSIKDYTCLLSSTWQELILLSSLTVYSKQIFGELADVTAKYSPSDEELHRFSDEGMEVIERLIYLYHKFHQLKVSNEEYACMKAINFLNQDIRGLTSASQLEQLNKRYWYICQDFTEYKYTHQPNRFPDLMMCLPEIRYIAGKMVNVPLEQLPLLFKVVLHSCKTSVGKE
B14: BAGE-2 (protein, UniProt Q86Y30 18-109, looked up)
B melanoma antigen 2: RLMKEESPVVSWRLEPEDGTALDVHFVSTLEPLSNAVKRNVPRCIIILVLQEPTAFRISVTSSCFVQNTLTKLLKDRRKMQTVQCATARETS
B15: BAGE-3 (protein, UniProt Q86Y29 18-109, looked up)
B melanoma antigen 3: B14 B melanoma antigen 2 with A55P, R89Q
B16: ODF1 (protein, UniProt Q14990 1-250, looked up)
Outer dense fiber protein 1: MAALSCLLDSVRRDIKKVDRELRQLRCIDEFSTRCLCDLYMHPYCCCDLHPYPYCLCYSKRSRSCGLCDLYPCCLCDYKLYCLRPSLRSLERKAIRAIEDEKRELAKLRRTTNRILASSCCSSNILGSVNVCGFEPDQVKVRVKDGKVCVSAERENRYDCLGSKKYSYMNICKEFSLPPCVDEKDVTYSYGLGSCVKIESPCYPCTSPCSPCSPCSPCNPCSPCNPCSPYDPCNPCYPCGSRFSCRKMIL

Test system: TSA
Details: for TSA Expression Rate (ER): BREAST
[1] = TSA expression rate in PROSTATE cancer
[2] = TSA expression rate in LEUKEMIAS
[3] = TSA expression rate in MELANOMA

Molecule	Expression Rate (ER) % [1]	Expression Rate (ER) % [3]	further results
B1	0%		TSA Expression Rate (ER): 0%
B2			Expression Rate (ER) % [2]: 4%
B3		25%	TSA Expression Rate (ER): 9%; Expression Rate (ER) % (TSA expression rate in CRC): 7%
B4	100%		Expression Rate (ER) % (TSA expression rate in CRC): 33%
B5	1%		
B6		63%	
B7			Expression Rate (ER) % [2]: 5%
B8		14%	Expression Rate (ER) % (TSA expression rate in HEAD and NECK): 6%; Expression Rate (ER) % (TSA expression rate in PEDIATRIC): 14%
B9	88%		
B10		22%	Expression Rate (ER) % (TSA expression rate in CRC): 11%; Expression Rate (ER) % (TSA expression rate in Kidney): 44%
B11			Expression Rate (ER) % (TSA expression rate in CRC): 89%; Expression Rate (ER) % (TSA expression rate in GASTRIC cancer): 57%
B12	10%		
B13	25%		
B14		23%	
B15		14%	
B16	10%		
